Reference: PMC2948571

Biological target: 40S-containing ribosomal complexes
Assay: co-sedimentation

- percent of 40S-ribosomal complexes associated with DHX29: 10%
B1: DExH-box protein DHX29 (enzyme)
chain: MGGKNKKHKAPGAAAVRAAVSASRAKSAEAAAAGEAQSKKPVARPPPAAAAGAREPRVKQGPKIYSFNSANDSGGPANVDKSILKVVINNKLEQRIIGVINEHKKQNNDKGMISGRLTAKKLQDLYMALQAFSFKTKDIEDAMTNTLLHGGDLHSALDWLCLNLSDDALPEGFSQEFEEQQAKSRPKFQAPQIQATISPPLQPKIKKQEEDPKIKPKKEDKNMEVNMKEWILQYAERQKEEEKSESSKSLEEEEKFDPNERYLHLAAKFLDAKEQAAAFKLEKNKQGQKEAQEKIRKFQREMETLEDHPVFNPAIKISYQQNERKKPPVATEGESSLNFNLFEKSAAPTEEEKDKKKEPHDVRNFDYTARSWTGKSPKQFLIDWVRKNLPKSPNPSFEKVPVGRYWKCRVRVIKSEDDVLVVCPAILTEDGMQAQHLGATLALYRLVKGQSVHQLLPPTYRDVWLEWSDAEKKKEELNKMETNKPRDLFIAKLLNKLKQQQQLQQQHSENKKENSEDPEESWENLVSEEDFSALSLESAVAEDLEPVRNLFRKLQSSPKYQRLLKERQQLPVFKHRESIVETLKRHRVVVVAGETGSGKSTQVPHFLLEDLLLNEWGTSKCNIICTQPRRISAVSLATRVCDELGCENGPGGRNSLCGYQIRMESRASESTRLLYCTTGVLLRKLQEDGLLSNVSHVIVDEVHERSVQSDFLLVILKEILQKRSDLHLILMSATVDSEKFSTYFTHCPILRISGRSYPVEVFHLEDIIEETGFVLEKDSEYCQKFLEEEEEITINVTSKAGGIKKYQEYIPVQTGTTADLNPLYQKYSNRTQHAILYMNPHKINLDLILELLVYLDKSPQFRNIEGAVLIFLPGLAHIQQLYDLLSNDRRFYSERYKVIALHSILSTQDQAAAFTLPPPGVRKIVLATNIAETGITIPDVVFVIDTGRTKENKYHESSQMSSLVETFVSKASALQRQGRAGRVRDGFCFRMYTRERFEGFMDYSVPEILRVPLEELCLHIMKCNLGSPEDFLSKALDPPQLQVISNAMNLLRKIGACELNEPKLTPLGQHLAALPVNVKIGKMLIFGAIFGCLDPVATLAAVMTEKSPFTTPIGRKEEADLAKSALAIADSDHLTIYNAYLGWKKAQQEGGYRSELAYCRRNFLNRTALLTLEDVKQELMKLVKAAGFSSTTSNNWEGNRASQTLSFQEIALLKAVLAAGLYDNVGKIIYTKSVDVTEKLACIVETAQGKAQVHPSSVNRDLQTYGWLLYQEKIRYARVYLRETTLITPFPVLLFGGDIEVQHRERLLSIDGWIYFQAPVKIAVIFKQLRVLIDSVLRKKLENPKMSLENDKILQIITELIKTENN
